Assay in all cases: mass photometry; (N8-)CRL2^FEM1B wild type or mutant alone; 2 µL of 10 nM protein added to 18 μL of 50 mM HEPES pH 7.5, 150 mM NaCl
Assay [1] addresses CRL2^FEM1B complex with FEM1B^F549R, unneddylated (human) (UniProt Q13617).
Assay [2] deals with CRL2^FEM1B complex with FEM1B^F549S, unneddylated (human) (UniProt Q13617).
The target in assay [3] is CRL2^FEM1B complex with FEM1B^F549T, unneddylated (human) (UniProt Q13617).

The term stoichiometry N denotes a count of units in the complex or per binding partner.

In assay [1], “CRL2^FEM1B complex with FEM1B^F549R, unneddylated (from UniProt Q13617 1-745; P62877 1-108; Q15370 1-104; Q15369 17-112; Q9UK73 1-627)” came in with a stoichiometry N of 2.

In assay [2], “CRL2^FEM1B complex with FEM1B^F549S, unneddylated (from UniProt Q13617 1-745; P62877 1-108; Q15370 1-104; Q15369 17-112; Q9UK73 1-627)” yielded a stoichiometry N of 2.

As to “CRL2^FEM1B complex with FEM1B^F549T, unneddylated (from UniProt Q13617 1-745; P62877 1-108; Q15370 1-104; Q15369 17-112; Q9UK73 1-627)”, in assay [3], the stoichiometry N is 2.

Values taken from paper PMC10943247.
